In PMC7141810, “UBP12 and UBP13 negatively regulate the activity of the ubiquitin-dependent peptidases DA1, DAR1 and DAR2” (eLife, 2020):

T1: GST-UBP13 (Arabidopsis thaliana, UniProt Q84WU2 1-1115)
T1 construct: UBP13, Arabidopsis thaliana, AT3G11910; called full-length; also called full-length GST-UBP13; source: E. coli BL21 (DE3), purified (Glutathione Sepharose 4B beads)
T1 sequence (looked up): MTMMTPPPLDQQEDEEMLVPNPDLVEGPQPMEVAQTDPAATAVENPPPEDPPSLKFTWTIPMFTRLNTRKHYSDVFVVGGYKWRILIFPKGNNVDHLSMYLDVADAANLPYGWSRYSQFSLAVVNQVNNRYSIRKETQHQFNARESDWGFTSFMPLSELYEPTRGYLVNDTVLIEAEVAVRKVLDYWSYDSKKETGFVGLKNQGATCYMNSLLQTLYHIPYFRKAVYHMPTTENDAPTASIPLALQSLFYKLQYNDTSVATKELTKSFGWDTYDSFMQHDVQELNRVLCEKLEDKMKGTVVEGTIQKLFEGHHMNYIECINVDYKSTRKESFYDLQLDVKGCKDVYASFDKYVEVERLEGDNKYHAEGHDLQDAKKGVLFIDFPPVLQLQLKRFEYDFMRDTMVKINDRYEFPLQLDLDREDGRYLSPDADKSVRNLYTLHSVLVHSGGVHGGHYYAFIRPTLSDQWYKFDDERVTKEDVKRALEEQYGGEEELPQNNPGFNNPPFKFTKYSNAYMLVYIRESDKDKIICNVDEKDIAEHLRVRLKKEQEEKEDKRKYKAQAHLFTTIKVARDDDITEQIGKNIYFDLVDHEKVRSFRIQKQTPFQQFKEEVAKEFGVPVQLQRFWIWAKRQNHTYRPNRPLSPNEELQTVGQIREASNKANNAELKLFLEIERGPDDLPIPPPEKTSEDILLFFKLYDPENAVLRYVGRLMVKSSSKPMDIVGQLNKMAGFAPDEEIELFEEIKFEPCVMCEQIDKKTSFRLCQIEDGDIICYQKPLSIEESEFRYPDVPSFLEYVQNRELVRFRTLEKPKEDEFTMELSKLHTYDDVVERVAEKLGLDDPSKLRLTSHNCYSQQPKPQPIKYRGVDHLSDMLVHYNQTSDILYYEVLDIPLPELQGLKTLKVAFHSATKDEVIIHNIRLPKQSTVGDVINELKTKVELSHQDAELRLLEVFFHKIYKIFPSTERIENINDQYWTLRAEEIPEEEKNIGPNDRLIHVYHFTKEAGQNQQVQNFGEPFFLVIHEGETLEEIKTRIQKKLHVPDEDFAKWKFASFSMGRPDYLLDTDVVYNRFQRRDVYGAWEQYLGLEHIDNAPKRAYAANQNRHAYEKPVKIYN

T2: GST-UBP12 (Arabidopsis thaliana, UniProt Q9FPT1 1-1116)
T2 construct: UBP12, Arabidopsis thaliana, AT5G06600; called full-length; also called full-length GST-UBP12; source: E. coli BL21 (DE3), purified (Glutathione Sepharose 4B beads)
T2 sequence (looked up): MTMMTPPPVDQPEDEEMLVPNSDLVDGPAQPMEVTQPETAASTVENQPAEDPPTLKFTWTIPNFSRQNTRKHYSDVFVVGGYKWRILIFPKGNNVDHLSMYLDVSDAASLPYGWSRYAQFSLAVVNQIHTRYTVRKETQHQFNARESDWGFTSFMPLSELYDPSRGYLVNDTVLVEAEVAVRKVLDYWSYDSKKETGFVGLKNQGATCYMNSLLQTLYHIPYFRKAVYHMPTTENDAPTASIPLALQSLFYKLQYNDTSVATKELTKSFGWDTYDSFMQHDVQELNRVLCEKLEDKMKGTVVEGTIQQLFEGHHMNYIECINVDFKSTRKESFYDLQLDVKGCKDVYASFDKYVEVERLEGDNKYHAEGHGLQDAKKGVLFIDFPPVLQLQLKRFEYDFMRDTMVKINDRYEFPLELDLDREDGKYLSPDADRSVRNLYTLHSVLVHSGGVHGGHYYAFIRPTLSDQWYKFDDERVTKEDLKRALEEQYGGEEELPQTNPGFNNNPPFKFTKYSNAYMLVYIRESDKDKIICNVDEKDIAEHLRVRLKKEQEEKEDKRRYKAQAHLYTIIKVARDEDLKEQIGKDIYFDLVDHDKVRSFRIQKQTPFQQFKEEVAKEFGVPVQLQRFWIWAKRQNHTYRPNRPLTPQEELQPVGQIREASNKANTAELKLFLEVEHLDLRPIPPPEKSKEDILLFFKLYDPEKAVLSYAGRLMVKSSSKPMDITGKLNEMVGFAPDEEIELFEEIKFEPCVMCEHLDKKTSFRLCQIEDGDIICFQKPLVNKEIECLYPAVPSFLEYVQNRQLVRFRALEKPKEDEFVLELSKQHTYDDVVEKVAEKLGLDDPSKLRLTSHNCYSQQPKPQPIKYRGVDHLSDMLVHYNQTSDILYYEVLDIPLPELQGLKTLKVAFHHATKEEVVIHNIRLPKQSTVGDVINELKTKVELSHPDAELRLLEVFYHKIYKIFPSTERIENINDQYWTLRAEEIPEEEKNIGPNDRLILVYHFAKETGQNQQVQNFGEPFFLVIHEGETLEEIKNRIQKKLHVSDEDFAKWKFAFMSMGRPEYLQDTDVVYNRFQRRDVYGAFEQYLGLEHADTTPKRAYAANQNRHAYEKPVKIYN

B1: HIS-MBP-DAR1 (natural protein, Arabidopsis thaliana, UniProt Q8W4F0 1-553, looked up)
chain: MGWLTKILKGSSHKFSDGQCNGRYREDRNLEGPRYSAEGSDFDKEEIECAIALSLSEQEHVIPQDDKGKKIIEYKSETEEDDDDDEDEDEEYMRAQLEAAEEEERRVAQAQIEEEEKRRAEAQLEETEKLLAKARLEEEEMRRSKAQLEEDELLAKALQESMNVGSPPRYDPGNILQPYPFLIPSSHRICVGCQAEIGHGRFLSCMGGVWHPECFCCNACDKPIIDYEFSMSGNRPYHKLCYKEQHHPKCDVCHNFIPTNPAGLIEYRAHPFWMQKYCPSHERDGTPRCCSCERMEPKDTKYLILDDGRKLCLECLDSAIMDTHECQPLYLEIREFYEGLHMKVEQQIPMLLVERSALNEAMEGEKHGHHHLPETRGLCLSEEQTVTTVLRRPRIGAGYKLIDMITEPCRLIRRCEVTAILILYGLPRLLTGSILAHEMMHAWLRLNGYPNLRPEVEEGICQVLAHMWLESETYAGSTLVDIASSSSSAVVSASSKKGERSDFEKKLGEFFKHQIESDSSSAYGDGFRQGNQAVLKHGLRRTLDHIRLTGTFP
notes: DAR1, Arabidopsis thaliana, AT4G36860; source: E. coli BL21 (DE3), purified (NI-NTA agarose beads)
B2: HIS-MBP-DAR2 (natural protein, Arabidopsis thaliana, UniProt Q0WSN2 1-528, looked up)
chain: MDSSSSSSSSSPSSSYGVARVSHISNPCIFGEVGSSSSSTYRDKKWKLMKWVSKLFKSGSNGGGSGAHTNHHPPQFQEDENMVFPLPPSSLDDRSRGARDKEELDRSISLSLADNTKRPHGYGWSMDNNRDFPRPFHGGLNPSSFIPPYEPSYQYRRRQRICGGCNSDIGSGNYLGCMGTFFHPECFRCHSCGYAITEHEFSLSGTKPYHKLCFKELTHPKCEVCHHFIPTNDAGLIEYRCHPFWNQKYCPSHEYDKTARCCSCERLESWDVRYYTLEDGRSLCLECMETAITDTGECQPLYHAIRDYYEGMYMKLDQQIPMLLVQREALNDAIVGEKNGYHHMPETRGLCLSEEQTVTSVLRRPRLGAHRLVGMRTQPQRLTRKCEVTAILVLYGLPRLLTGAILAHELMHGWLRLNGFRNLNPEVEEGICQVLSYMWLESEVLSDPSTRNLPSTSSVATSSSSSFSNKKGGKSNVEKKLGEFFKHQIAHDASPAYGGGFRAANAAACKYGLRRTLDHIRLTGTFPL
notes: DAR2, Arabidopsis thaliana, AT2G39830; source: E. coli BL21 (DE3), purified (NI-NTA agarose beads)
B3: HIS-MBP-DA1 (natural protein, Arabidopsis thaliana, UniProt P0C7Q8 1-532, looked up)
chain: MGWFNKIFKGSNQRLRVGNNKHNHNVYYDNYPTASHDDEPSAADTDADNDEPHHTQEPSTSEDNTSNDQENEDIDRAIALSLLEENQEQTSISGKYSMPVDEDEQLARALQESMVVGNSPRHKSGSTYDNGNAYGAGDLYGNGHMYGGGNVYANGDIYYPRPITFQMDFRICAGCNMEIGHGRFLNCLNSLWHPECFRCYGCSQPISEYEFSTSGNYPFHKACYRERYHPKCDVCSHFIPTNHAGLIEYRAHPFWVQKYCPSHEHDATPRCCSCERMEPRNTRYVELNDGRKLCLECLDSAVMDTMQCQPLYLQIQNFYEGLNMKVEQEVPLLLVERQALNEAREGEKNGHYHMPETRGLCLSEEQTVSTVRKRSKHGTGKWAGNITEPYKLTRQCEVTAILILFGLPRLLTGSILAHEMMHAWMRLKGFRTLSQDVEEGICQVMAHKWLDAELAAGSTNSNAASSSSSSQGLKKGPRSQYERKLGEFFKHQIESDASPVYGDGFRAGRLAVHKYGLRKTLEHIQMTGRFPV
notes: DA1, Arabidopsis thaliana, AT1G19270; source: E. coli BL21 (DE3), purified (NI-NTA agarose beads)

biological target: T1, GST-UBP13; assay: pull-down; in vitro; equal amounts of free GST, GST-UBP12 or GST-UBP13 as baits incubated with HIS-MBP-DA1, -DAR1 or -DAR2; purification with anti-GST beads; Western blot; conditions: both partners purified

Binding result, binds:
B1
B2
B3

biological target: T2, GST-UBP12; assay: as above; conditions: both partners purified

Binding result, binds:
B1
B2
B3
